Assay [1] addresses T1, p300 (UniProt Q09472 2-2414, limits assumed).
T1 construct: The shRNAs used in Kasumi-1 cells are against human p300
The assay is described as follows: anti-Flag co-IP from 293T cells, Western blot for p300. The protocol: (§1) After 36 hours the cells were lysed in RIPA buffer with 1 mM DTT and DNAse I 1 μg/mL and a proteinase inhibitor cocktail (Roche), and incubated on ice for 30 minutes. Nuclear extracts were prepared to examine the endogenous protein-protein interactions. Anti-Flag agarose (Sigma), anti-HA agarose (Pierce) or protein A/G agarose (Santa Cruz) was used in the immunoprecipitation assays. For western blot assays, protein samples were separated by electrophoresis on denaturing 3-8% or 4-12% premade polyacrylamide gels (Invitrogen) and blotted to PVDF membranes (Millipore).

For assay [2], the target named is T1, p300. As to the kind of experiment: anti-HA co-IP, Western blot for p300. The protocol:
as §1

The target in assay [3] is T1, p300. The assay is described as follows: in vitro binding assay with purified proteins.

From US20140348840A1 (Memorial Sloan Kettering, published 2014) come the findings set out here.

T1 sequence (Q09472 2-2414 limits assumed): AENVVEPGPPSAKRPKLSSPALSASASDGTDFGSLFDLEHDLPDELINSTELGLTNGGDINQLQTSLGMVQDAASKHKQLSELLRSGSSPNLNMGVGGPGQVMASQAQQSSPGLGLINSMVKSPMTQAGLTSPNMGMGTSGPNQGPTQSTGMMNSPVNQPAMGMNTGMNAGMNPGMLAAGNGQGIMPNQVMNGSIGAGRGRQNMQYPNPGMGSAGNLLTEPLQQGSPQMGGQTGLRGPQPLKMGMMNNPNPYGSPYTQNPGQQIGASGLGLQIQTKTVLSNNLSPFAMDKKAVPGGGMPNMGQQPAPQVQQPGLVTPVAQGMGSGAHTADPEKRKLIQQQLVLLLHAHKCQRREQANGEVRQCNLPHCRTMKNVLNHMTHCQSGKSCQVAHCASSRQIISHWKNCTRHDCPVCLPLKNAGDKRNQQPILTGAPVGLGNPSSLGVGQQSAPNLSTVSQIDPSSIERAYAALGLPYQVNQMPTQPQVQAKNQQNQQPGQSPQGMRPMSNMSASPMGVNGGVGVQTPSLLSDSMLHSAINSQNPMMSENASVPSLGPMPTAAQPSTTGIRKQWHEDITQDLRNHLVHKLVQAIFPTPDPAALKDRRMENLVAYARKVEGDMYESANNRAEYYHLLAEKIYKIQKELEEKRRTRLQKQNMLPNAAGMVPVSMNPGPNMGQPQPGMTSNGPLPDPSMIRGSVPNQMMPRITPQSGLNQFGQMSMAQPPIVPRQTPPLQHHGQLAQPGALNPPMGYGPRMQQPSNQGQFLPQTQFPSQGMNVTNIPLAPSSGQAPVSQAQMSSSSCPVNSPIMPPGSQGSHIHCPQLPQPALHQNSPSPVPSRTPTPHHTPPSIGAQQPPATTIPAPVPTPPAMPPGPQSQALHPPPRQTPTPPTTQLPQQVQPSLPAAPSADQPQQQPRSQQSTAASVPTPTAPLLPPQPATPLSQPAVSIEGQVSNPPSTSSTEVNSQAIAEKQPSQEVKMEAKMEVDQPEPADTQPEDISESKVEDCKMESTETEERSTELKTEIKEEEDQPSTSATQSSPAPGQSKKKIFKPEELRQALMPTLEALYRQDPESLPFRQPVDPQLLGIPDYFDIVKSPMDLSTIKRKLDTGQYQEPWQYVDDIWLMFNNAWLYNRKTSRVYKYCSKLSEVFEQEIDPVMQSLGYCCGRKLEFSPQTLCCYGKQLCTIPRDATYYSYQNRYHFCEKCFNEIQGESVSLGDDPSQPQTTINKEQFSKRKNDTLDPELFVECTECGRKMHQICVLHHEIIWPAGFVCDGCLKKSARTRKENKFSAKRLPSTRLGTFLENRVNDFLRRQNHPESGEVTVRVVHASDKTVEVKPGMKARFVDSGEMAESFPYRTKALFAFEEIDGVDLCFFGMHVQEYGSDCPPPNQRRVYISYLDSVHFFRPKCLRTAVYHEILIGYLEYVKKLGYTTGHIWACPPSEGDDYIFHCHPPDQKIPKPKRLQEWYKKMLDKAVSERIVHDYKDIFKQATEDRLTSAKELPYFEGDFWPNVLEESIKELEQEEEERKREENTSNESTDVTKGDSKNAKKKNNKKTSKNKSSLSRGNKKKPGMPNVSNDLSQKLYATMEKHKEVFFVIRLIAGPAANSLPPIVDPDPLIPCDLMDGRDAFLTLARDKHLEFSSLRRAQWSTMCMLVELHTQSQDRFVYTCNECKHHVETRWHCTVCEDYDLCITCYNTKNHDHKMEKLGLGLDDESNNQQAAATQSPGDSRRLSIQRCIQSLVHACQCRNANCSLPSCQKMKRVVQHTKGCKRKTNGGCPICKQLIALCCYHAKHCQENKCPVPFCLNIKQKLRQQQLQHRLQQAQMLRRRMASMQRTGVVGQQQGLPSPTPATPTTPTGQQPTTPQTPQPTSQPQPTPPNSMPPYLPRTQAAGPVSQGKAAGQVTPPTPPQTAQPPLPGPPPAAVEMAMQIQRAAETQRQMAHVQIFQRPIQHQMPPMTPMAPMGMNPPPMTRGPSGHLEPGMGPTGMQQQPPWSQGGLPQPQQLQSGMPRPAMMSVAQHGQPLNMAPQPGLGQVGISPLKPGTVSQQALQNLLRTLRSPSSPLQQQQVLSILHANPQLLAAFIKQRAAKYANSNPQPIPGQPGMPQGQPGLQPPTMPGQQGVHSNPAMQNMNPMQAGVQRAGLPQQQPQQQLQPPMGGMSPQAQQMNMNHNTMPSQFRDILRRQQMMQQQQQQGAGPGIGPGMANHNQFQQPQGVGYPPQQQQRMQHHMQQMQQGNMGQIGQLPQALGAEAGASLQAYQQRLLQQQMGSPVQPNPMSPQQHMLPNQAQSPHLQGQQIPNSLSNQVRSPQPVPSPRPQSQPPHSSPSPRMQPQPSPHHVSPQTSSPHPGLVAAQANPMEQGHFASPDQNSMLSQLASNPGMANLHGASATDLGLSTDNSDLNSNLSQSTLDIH

B1: Flag-ETO-ΔNHR1 (other, human, UniProt Q06455 1-604, looked up)
chain: MISVKRNTWRALSLVIGDCRKKGNFEYCQDRTEKHSTMPDSPVDVKTQSRLTPPTMPPPPTTQGAPRTSSFTPTTLTNGTSHSPTALNGAPSPPNGLPHPTPPPPQHYRLDDMAIAHHYRDSYRHPSHRDLRDRNRPMGLHGTRQEEMIDHRLTDREWAEEWKHLDHLLNCIMDMVEKTRRSLTVLRRCQEADREELNYWIRRYSDAEDLKKGGGSSSSHSRQQSPVNPDPVALDAHREFLHRPASGYVPEEIWKKAEEAVNEVKRQAMTELQKAVSEAERKAHDMITTERAKMERTVAEAKRQAAEDALAVINQQEDSSESCWNCGRKASETCSGCNTARYCGSFCQHKDWEKHHHICGQTLQAQQQGDTPAVSSSVTPNSGAGSPMDTPPAATPRSTTPGTPSTIETTPR
notes: not shown: Flag tag
As to B1, the binding result in the assay with p300 [1] is “no binding”.

B2: HA-AML1-ETO9a (other)
chain: MRIPVDASTSRRFTPPSTALSPGKMSEALPLGAPDAGAALAGKLRSGDRSMVEVLADHPGELVRTDSPNFLCSVLPTHWRCNKTLPIAFKVVALGDVPDGTLVTVMAGNDENYSAELRNATAAMKNQVARFNDLRFVGRSGRGKSFTLTITVFTNPPQVATYHRAIKITVDGPREPRNRTEKHSTMPDSPVDVKTQSRLTPPTMPPPPTTQGAPRTSSFTPTTLTNGTSHSPTALNGAPSPPNGFSNGPSSSSSSSLANQQLPPACGARQLSKLKRFLTTLQQFGNDISPEIGERVRTLVLGLVNSTLTIEEFHSKLQEATNFPLRPFVIPFLKANLPLLQRELLHCARLAKQNPAQYLAQHEQLLLDASTTSPVDSSELLLDVNENGKRRTPDRTKENGFDREPLHSEHPSKRPCTISPGQRYSPNNGLSYQPNGLPHPTPPPPQHYRLDDMAIAHHYRDSYRHPSHRDLRDRNRPMGLHGTRQEEMIDHRLTDREWAEEWKHLDHLLNCIMDMVEKTRRSLTVLRRCQEADREELNYWIRRYSDAEDLKKGGGSSSSHSRQQSPVNPDPVALD
notes: Alternatively spliced form of A-E with 575 amino acids, lacking NHR3 and NHR4; also called A-E9a; AE9a; not shown: HA tag (anti-HA antibody used for the IP)
As for B2, the binding result with p300 [2] is recorded as “binds”.

B3: Flag-AE-ΔNHR1 (aa245-436) (other)
chain: MRIPVDASTSRRFTPPSTALSPGKMSEALPLGAPDAGAALAGKLRSGDRSMVEVLADHPGELVRTDSPNFLCSVLPTHWRCNKTLPIAFKVVALGDVPDGTLVTVMAGNDENYSAELRNATAAMKNQVARFNDLRFVGRSGRGKSFTLTITVFTNPPQVATYHRAIKITVDGPREPRNRTEKHSTMPDSPVDVKTQSRLTPPTMPPPPTTQGAPRTSSFTPTTLTNGTSHSPTALNGAPSPPNGFSHRDLRDRNRPMGLHGTRQEEMIDHRLTDREWAEEWKHLDHLLNCIMDMVEKTRRSLTVLRRCQEADREELNYWIRRYSDAEDLKKGGGSSSSHSRQQSPVNPDPVALDAHREFLHRPASGYVPEEIWKKAEEAVNEVKRQAMTELQKAVSEAERKAHDMITTERAKMERTVAEAKRQAAEDALAVINQQEDSSESCWNCGRKASETCSGCNTARYCGSFCQHKDWEKHHHICGQTLQAQQQGDTPAVSSSVTPNSGAGSPMDTPPAATPRSTTPGTPSTIETTPR
notes: also called AML1-ETO ΔNHR1; not shown: Flag tag at the N-terminus
For the molecule B3, the binding result with p300 [1] is listed as “no binding”.

B4: AML1-ETO fusion protein (other)
chain: MRIPVDASTSRRFTPPSTALSPGKMSEALPLGAPDAGAALAGKLRSGDRSMVEVLADHPGELVRTDSPNFLCSVLPTHWRCNKTLPIAFKVVALGDVPDGTLVTVMAGNDENYSAELRNATAAMKNQVARFNDLRFVGRSGRGKSFTLTITVFTNPPQVATYHRAIKITVDGPREPRNRTEKHSTMPDSPVDVKTQSRLTPPTMPPPPTTQGAPRTSSFTPTTLTNGTSHSPTALNGAPSPPNGFSNGPSSSSSSSLANQQLPPACGARQLSKLKRFLTTLQQFGNDISPEIGERVRTLVLGLVNSTLTIEEFHSKLQEATNFPLRPFVIPFLKANLPLLQRELLHCARLAKQNPAQYLAQHEQLLLDASTTSPVDSSELLLDVNENGKRRTPDRTKENGFDREPLHSEHPSKRPCTISPGQRYSPNNGLSYQPNGLPHPTPPPPQHYRLDDMAIAHHYRDSYRHPSHRDLRDRNRPMGLHGTRQEEMIDHRLTDREWAEEWKHLDHLLNCIMDMVEKTRRSLTVLRRCQEADREELNYWIRRYSDAEDLKKGGGSSSSHSRQQSPVNPDPVALDAHREFLHRPASGYVPEEIWKKAEEAVNEVKRQAMTELQKAVSEAERKAHDMITTERAKMERTVAEAKRQAAEDALAVINQQEDSSESCWNCGRKASETCSGCNTARYCGSFCQHKDWEKHHHICGQTLQAQQQGDTPAVSSSVTPNSGAGSPMDTPPAATPRSTTPGTPSTIETTPR
notes: also called A-E; AE
As for B4, in the assay with p300 [3], the binding result is “binds”.

B5: Flag-AE (Flag-tagged AML1-ETO) (other)
chain: MRIPVDASTSRRFTPPSTALSPGKMSEALPLGAPDAGAALAGKLRSGDRSMVEVLADHPGELVRTDSPNFLCSVLPTHWRCNKTLPIAFKVVALGDVPDGTLVTVMAGNDENYSAELRNATAAMKNQVARFNDLRFVGRSGRGKSFTLTITVFTNPPQVATYHRAIKITVDGPREPRNRTEKHSTMPDSPVDVKTQSRLTPPTMPPPPTTQGAPRTSSFTPTTLTNGTSHSPTALNGAPSPPNGFSNGPSSSSSSSLANQQLPPACGARQLSKLKRFLTTLQQFGNDISPEIGERVRTLVLGLVNSTLTIEEFHSKLQEATNFPLRPFVIPFLKANLPLLQRELLHCARLAKQNPAQYLAQHEQLLLDASTTSPVDSSELLLDVNENGKRRTPDRTKENGFDREPLHSEHPSKRPCTISPGQRYSPNNGLSYQPNGLPHPTPPPPQHYRLDDMAIAHHYRDSYRHPSHRDLRDRNRPMGLHGTRQEEMIDHRLTDREWAEEWKHLDHLLNCIMDMVEKTRRSLTVLRRCQEADREELNYWIRRYSDAEDLKKGGGSSSSHSRQQSPVNPDPVALDAHREFLHRPASGYVPEEIWKKAEEAVNEVKRQAMTELQKAVSEAERKAHDMITTERAKMERTVAEAKRQAAEDALAVINQQEDSSESCWNCGRKASETCSGCNTARYCGSFCQHKDWEKHHHICGQTLQAQQQGDTPAVSSSVTPNSGAGSPMDTPPAATPRSTTPGTPSTIETTPR
notes: Expressed in 293T cells with BosNeo-p300; anti-Flag IP; not shown: Flag tag added at the 5' end of the construct (N-terminus)
As to B5, in the assay with p300 [1], the binding result was “binds”.

B6: Flag-AE-ΔNHR2 (other)
chain: MRIPVDASTSRRFTPPSTALSPGKMSEALPLGAPDAGAALAGKLRSGDRSMVEVLADHPGELVRTDSPNFLCSVLPTHWRCNKTLPIAFKVVALGDVPDGTLVTVMAGNDENYSAELRNATAAMKNQVARFNDLRFVGRSGRGKSFTLTITVFTNPPQVATYHRAIKITVDGPREPRNRTEKHSTMPDSPVDVKTQSRLTPPTMPPPPTTQGAPRTSSFTPTTLTNGTSHSPTALNGAPSPPNGFSNGPSSSSSSSLANQQLPPACGARQLSKLKRFLTTLQQFGNDISPEIGERVRTLVLGLVNSTLTIEEFHSKLQEATNFPLRPFVIPFLKANLPLLQRELLHCARLAKQNPAQYLAQHEQLLLDASTTSPVDSSELLLDVNENGKRRTPDRTKENGFDREPLHSEHPSKRPCTISPGQRYSPNNGLSYQPNGLPHPTPPPPQHYRLDDMAIAHHYRDSYRHPSHRDLRDRNRPMGLEDLKKGGGSSSSHSRQQSPVNPDPVALDAHREFLHRPASGYVPEEIWKKAEEAVNEVKRQAMTELQKAVSEAERKAHDMITTERAKMERTVAEAKRQAAEDALAVINQQEDSSESCWNCGRKASETCSGCNTARYCGSFCQHKDWEKHHHICGQTLQAQQQGDTPAVSSSVTPNSGAGSPMDTPPAATPRSTTPGTPSTIETTPR
notes: AML1-ETO lacking amino acids 481 to 547 (the NHR2 domain); also called AML1-ETO ΔNHR2; not shown: Flag tag at the N-terminus
In the case of B6, in the assay with p300 [1], the binding result was “binds”.
